Experimental data from US20250027068.

B1: PRT-415 (protein)
chain: MTITSVWTKGVTPPTPEDFRYNNEDVLHAPYVANQGWYDITKTFDGKDNLLCGAATAGNMLHWWFDQNKEEIERYLKKHPEKQKIIFNNQELFDVKAAIDTKDSQTNSKLFNYFLDKAFPNLSARQLGVMPDLVLDMFINGYYLNLGKTQSTDVNRPYQDKDKRGGIFDAVFTRGDQTTLLTARHDLKNKGLNEISDLIKQELTEGKALALSHTYANVRINHVINLWGADFDAEGNLIAIYVTDSDANASIGMKKYFVGVNANGKVAISAKKIEGDNIGAQVLGLFTLSTGQDIWQKLS
B2: PRT-423 (protein)
chain: MTITSVWTKGVTPPTPEDFRYNNEDVLHAPYVANQGWYDITKTFDGKDNLLCGAATAGNMLHWWFDQNKEEIERYLKKHPEKQKIIFNNQELFDVKAAIDTKDSQTNSKLFNYFRDKAFPNLSARQLGVMPDLVLDMFINGYYLNLGKTQSTDVNRPYQDKDKRGGIFDAVFTRGDQTTLLTARHDLKNKGLNEISDLIKQELTEGKALALSHTYANVRINHVINLWGADFDAEGNLIAIYVTDSDANASIGMKKYFVGRNANGKVAISAKKIEGDNIGAQVLGLFTLSTGQDIWQKLS
B3: PRT-439 (protein)
chain: MSQTEDSESLQRLRDIEDFQAEKKKQNVVYTKWLDGVDVKDHDFRKIVDGNIAYYATPLLNGRGFYDINKDFNRDSDKCAAAVAANMFHYWLDRNRDNVDRFLRQNPEKHGIIELPDGQLKLSDFLNTYESDDGYRDKSKLFDFISNNFNGPVWTDKLLDNYINGYAYNYKYGRLIEDPTKNTSKINFFKEVFNEKILTNNHSIRNQNEFSVLLSEALYTGKAIGLSYGPAGLRHSLGHIISVWGADLDADGNVVAIYVTDSDDKKLTIGDERVGLKRYKISTDDEGRLRLTAYEETHNTGGQIRGLWTLDTGKQAWADYFDKTEQTGTDQAEQ
B4: PRT-384 (protein)
chain: MVTSVWTKGVTPPTNFTYGEDVLHAPYVANQGWYDITKTFNGKDDLLCGAATAGNMLHWWFDQNKEQIENYLKKHPEKQKINFNGEQMFDVKEAIDTKDSQLDSKLFEYFKEKAFPNLSTKHLGVFPDHVIDMFINGYRLSLTNHGPTPVKRGSKDPRGGIFDAVFTRGDQSKLLTNRHDFKEKTLKEISDLIKQELTEGKALGISHTYANVRINHVINLWGADFDAEGNLEAIYVTDSDSNASIGMKKYFVGVNSNGKVAISAKEIEEDNIGAQVLGLFTLSTGQDIWNQTN
B5: PRT-392 (protein)
chain: MVTSVWTKGVTPPTNFTYGEDVLHAPYVANQGWYDITKTFNGKDDLLCGAATAGNMLHWWFDQNKEQIENYLKKHPEKQKINFNGEQMFDVKEAIDTKDSQLDSKLFEYFKEKAFPYLSTKHLGVFPDHVIDMFINGYRLSLTNHGPTPVKRGSKDPRGGIFDAVFTRGVQSKLLTNRHDFKEKTLKEISDLIKQELTEGKALGISHTYANVRINHVINLWGADFDAEGNLEAIYVTDSDSNASIGMKKYFVGVNSNGKVAISAKEIEEDNIGAQVLGLFTLSTGQDIWNQTN
B6: PRT-400 (protein)
chain: MVTSVWTKGVTPPADFTQGEDVFHAPYDANQGWYDITKTFNGKDDLLCGAATAGNMLHWWFDQNKEYIEAYLKKHPEKQKIMFGDQELLDVRKAINTKGSQKNSELFNYFRDKAFPNLSARRLGVMPDLVLDMFINGYYLNVTKTQTTDVNRTYQEKDKRGGIFDAVFTRGDQSKLLTSRHDFKEKGLKEISDLIKQELTEGKALGLSHTYANVRINHVINLWGADFDSDGNLKAIYVTDSDSNASIGMKKYFVGVNSAGKVAISAKEIKEDNIGAQVLGLFTLSTGQDIWNQTN
B7: PRT-408 (protein)
chain: MVTSVWTKGVTPPADFTQGEDVFHAPYVANQGWYDITKTFNGKDDLLCGAATAGNMLHWWFDQNKEYIEAYLKKHPEKQKIMFGDQELLDVRKAINTKGSQKNSELFNYFRDKAFPNLSARRLGVFPDLVLDMFINGYYLNVTKTQTTDVNRTYQEKDKRGGIFDAVFTRGDQSKLLTSRHDFKEKGLKEISDLIKQELTEGKALGLSHTYANVRINHVINLWGADFDSDGNLKAIYVTDSDSNASIGMKKYFVGVNSAGKVAISAKEIKEDNIGAQVLGLFTLSTGQDIWNQTN
B8: PRT-416 (protein)
chain: MTITSVWTKGVTPPTPEDFRYNNEDVLHAPYVANQGWYDITKTFDGKDNLLCGAATAGNMLHWWFDQNKEEIERYLKKHPEKQKIIFNNQELFDVKAAIDTKDSQTNSKLFNYFRDKAFPNLSARQLGVMPDLVLDMFINGYYLNLPKTQSTDVNRPYQDKDKRGGIFDAVFTRGDQTTLLTARHDLKNKGLNEISDLIKQELTEGKALALSHTYANVRINHVINLWGADFDAEGNLIAIYVTDSDANASIGMKKYFVGVNANGKVAISAKKIEGDNIGAQVLGLFTLSTGQDIWQKLS
B9: PRT-424 (protein)
chain: MTITSVWTKGVTPPTPEDFRYNNEDVLHAPYVANQGWYDITKTFDGKDNLLCGAATAGNMLHWWFDQNKEEIERYLKKHPEKQKIIFNNQELFDVKAAIDTKDSQTNSKLFNYFRDKAFPNLSARQLGVMPDLVLDMFINGYYLNLGKTQSTDVNRPYQDKDKRGGIFDAVFTRGDQTTLLTARHDLKNKGLNEISDLIKQELTEGKALALSHTYANVRINHVINLWGADFDAEGNLIAIYVTDSDANASIGMKKYFVGVNANGKVAISAKKIEGDNIGAQVLGLFTLSLGQDIWQKLS
B10: PRT-442 (protein)
chain: MSQTEDSESLQRLRDIEDFQAEKKKQNVVYTKWLDGVDVKDHDFRKIVDGNIAYYATPLLNGRGFYDINKDFNRDNDKCAAAVAANMFHYWLDRNRDNVDRFLRQNPEKHGIIELPDGQLKLSDFLNTYESDDGYRDKSKLFDFISNNFNGPVWTDKLLDNYINGYAYNYKYGRTIEDPTKNTSKINFFKEVFNEKILTNNHSIRNQNEFSVLLSEALYTGKAIGLSYGPAGLRHSLGHIISVWGADLDADGNVVAIYVTDSDDKKLTIGDERVGLKRYKISTDDEGRLRLTAYEETHNTGGQIRGLWTLDTGKQAWADYFDKTEQTGTDQAEQ
B11: PRT-433 (protein)
chain: MSQTEDSESLQRLRDIEDFQAEKKKQNVVYTKWLDGVDVKDHDFRKIVDGNIAYYATPLLNGRGFYDINKDFNRDSDKCAAAVAANMFHYWLDRNRDNVDRFLRQNPEKHGIIELPDGQLKLSDFLNTYESDDGYRDKSKLFDFISNNFNGPVWTDKLLDNYINGYAYNYKYGRTIEDPTKNTSKINFFKEVFNEKILTNNHSIRNQNEFSVLLIEALYTGKAIGLSYGPAGLRHSLGHIISVWGADLDADGNVVAIYVTDSDDKKLTIGDERVGLKRYKISTDDEGRLRLTAYEETHNTGGQIRGLWTLDTGKQAWADYFDKTEQTGTDQAEQ
B12: PRT-598 (protein)
chain: MANQEIRYSEETPSTITSVWTKGVTPPTDFIQNEDVLHAPYIANQGWYDITKTFNGKDDLLCGAATAGNMLHWWFDQNKEQIENYLKKHPEKQKINFNGEQMFDVKEAIDTKDSQTDSALFEYFKDKAFPYLSTKHLGVFPDHVIDMFINGYRLSLTNHGPTPVKRGTKDPRGGIFDAVFTRGDQSKLLTSRHDFKEKTLNEISDLIKQELTEGKALGLSHTYANVRINHVINLWGADFNAEGNLEAIYVTDSDSNASIGMKKYFVGVNSAGKVAISAKEIEGDNIGAQVLGLFTLSTGQDIWNQTNLEHHHHHH

The proteins below were run against pooled human IgG (human IgG1, 2, 3 and 4).

Point of comparison: B2, Enzyme Activity Endpoint Assay (purified): Fab′2 398 ng/µL. Against it:
- B1 — lower, 46 ng/µL
- B3 — lower, 179 ng/µL
- B4 — lower, 365 ng/µL
- B5 — higher, 513 ng/µL
- B6 — higher, 556 ng/µL
- B11 — higher, 575 ng/µL

Point of comparison: B2, Enzyme Activity Endpoint Assay (purified): Fc 0 ng/µL. Against it:
- B1 — higher, 225 ng/µL
- B3 — higher, 191 ng/µL
- B4 — the same, 0 ng/µL
- B5 — higher, 354 ng/µL
- B6 — higher, 333 ng/µL
- B11 — higher, 489 ng/µL
- B12 — higher, 172 ng/µL

Point of comparison: B1, Enzyme Activity Endpoint Assay (purified): IgG 164 ng/µL. Against it:
- B2 — higher, 1660 ng/µL
- B3 — higher, 325 ng/µL
- B4 — higher, 1510 ng/µL
- B5 — lower, 0 ng/µL
- B6 — higher, 176 ng/µL
- B11 — lower, 0 ng/µL
- B12 — lower, 0 ng/µL

Point of comparison: B5, Enzyme Activity Endpoint Assay (purified): scIgG 196 ng/µL. Against it:
- B1 — higher, 630 ng/µL
- B2 — lower, 0 ng/µL
- B3 — higher, 528 ng/µL
- B4 — lower, 0 ng/µL
- B6 — lower, 0 ng/µL
- B11 — higher, 224 ng/µL
- B12 — higher, 213 ng/µL

Point of comparison: B5, Enzyme Activity Endpoint Assay: Fab′2 513 ng/µL. Against it:
- B1 — lower, 46 ng/µL
- B2 — lower, 398 ng/µL
- B3 — lower, 179 ng/µL
- B4 — lower, 365 ng/µL
- B6 — higher, 556 ng/µL
- B7 — higher, 564 ng/µL
- B8 — lower, 125 ng/µL
- B9 — higher, 618 ng/µL
- B10 — lower, 18 ng/µL
- B11 — higher, 575 ng/µL
- B12 — higher, 567 ng/µL

Point of comparison: B2, Enzyme Activity Endpoint Assay: Fc 0 ng/µL. Against it:
- B1 — higher, 225 ng/µL
- B3 — higher, 191 ng/µL
- B4 — the same, 0 ng/µL
- B5 — higher, 354 ng/µL
- B6 — higher, 333 ng/µL
- B7 — higher, 334 ng/µL
- B8 — higher, 258 ng/µL
- B9 — higher, 348 ng/µL
- B10 — higher, 169 ng/µL
- B11 — higher, 489 ng/µL
- B12 — higher, 172 ng/µL

Point of comparison: B10, Enzyme Activity Endpoint Assay: IgG 680 ng/µL. Against it:
- B1 — lower, 164 ng/µL
- B2 — higher, 1660 ng/µL
- B3 — lower, 325 ng/µL
- B4 — higher, 1510 ng/µL
- B5 — lower, 0 ng/µL
- B6 — lower, 176 ng/µL
- B7 — lower, 179 ng/µL
- B8 — lower, 96 ng/µL
- B9 — lower, 88 ng/µL
- B11 — lower, 0 ng/µL
- B12 — lower, 0 ng/µL

Point of comparison: B4, Enzyme Activity Endpoint Assay: scIgG 0 ng/µL. Against it:
- B1 — higher, 630 ng/µL
- B2 — the same, 0 ng/µL
- B3 — higher, 528 ng/µL
- B5 — higher, 196 ng/µL
- B6 — the same, 0 ng/µL
- B7 — the same, 0 ng/µL
- B8 — higher, 453 ng/µL
- B9 — the same, 0 ng/µL
- B10 — higher, 381 ng/µL
- B11 — higher, 224 ng/µL
- B12 — higher, 213 ng/µL

With B12 the Enzyme Activity Endpoint Assay (purified): Fab'2 was 567 ng/µL.
